{"source": "patent US8012945B2", "about": "“Phage antibodies to radiation-inducible neoantigens” (Vanderbilt University, priority 2001, dated 2011)", "biological_target": "T1, α2bβ3 receptor (Mus musculus, UniProt O54890+Q9QUM0)", "T1 construct": "from tissue; host or cells: irradiated tumours (blood vessels and platelets) in living mice", "T1 sequence (Q9QUM0 32-1033)": "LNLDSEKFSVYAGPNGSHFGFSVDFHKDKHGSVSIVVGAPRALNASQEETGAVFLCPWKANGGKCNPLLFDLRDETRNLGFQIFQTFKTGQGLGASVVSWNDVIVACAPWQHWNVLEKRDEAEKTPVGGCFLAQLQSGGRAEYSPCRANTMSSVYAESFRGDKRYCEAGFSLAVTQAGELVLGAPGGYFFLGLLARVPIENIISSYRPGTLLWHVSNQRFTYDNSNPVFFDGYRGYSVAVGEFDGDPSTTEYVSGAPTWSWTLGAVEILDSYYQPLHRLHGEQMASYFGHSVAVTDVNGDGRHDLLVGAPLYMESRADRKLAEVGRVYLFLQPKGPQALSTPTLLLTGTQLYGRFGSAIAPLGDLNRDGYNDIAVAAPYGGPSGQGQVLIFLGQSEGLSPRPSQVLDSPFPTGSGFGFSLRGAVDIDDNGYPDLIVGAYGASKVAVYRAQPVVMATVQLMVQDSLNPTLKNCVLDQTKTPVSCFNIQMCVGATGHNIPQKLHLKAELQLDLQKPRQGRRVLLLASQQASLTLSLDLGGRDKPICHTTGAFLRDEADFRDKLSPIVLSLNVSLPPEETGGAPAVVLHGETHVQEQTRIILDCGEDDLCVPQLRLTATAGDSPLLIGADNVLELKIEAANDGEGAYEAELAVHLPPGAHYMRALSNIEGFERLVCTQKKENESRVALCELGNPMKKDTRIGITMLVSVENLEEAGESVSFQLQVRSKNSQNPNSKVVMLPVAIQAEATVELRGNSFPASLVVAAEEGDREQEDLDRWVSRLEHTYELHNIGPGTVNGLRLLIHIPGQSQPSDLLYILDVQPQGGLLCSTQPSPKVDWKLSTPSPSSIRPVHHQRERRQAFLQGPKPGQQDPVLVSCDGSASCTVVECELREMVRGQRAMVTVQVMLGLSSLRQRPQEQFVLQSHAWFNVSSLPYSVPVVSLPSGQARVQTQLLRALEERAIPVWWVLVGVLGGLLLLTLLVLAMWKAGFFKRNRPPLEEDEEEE", "T1 sequence (O54890 26-787)": "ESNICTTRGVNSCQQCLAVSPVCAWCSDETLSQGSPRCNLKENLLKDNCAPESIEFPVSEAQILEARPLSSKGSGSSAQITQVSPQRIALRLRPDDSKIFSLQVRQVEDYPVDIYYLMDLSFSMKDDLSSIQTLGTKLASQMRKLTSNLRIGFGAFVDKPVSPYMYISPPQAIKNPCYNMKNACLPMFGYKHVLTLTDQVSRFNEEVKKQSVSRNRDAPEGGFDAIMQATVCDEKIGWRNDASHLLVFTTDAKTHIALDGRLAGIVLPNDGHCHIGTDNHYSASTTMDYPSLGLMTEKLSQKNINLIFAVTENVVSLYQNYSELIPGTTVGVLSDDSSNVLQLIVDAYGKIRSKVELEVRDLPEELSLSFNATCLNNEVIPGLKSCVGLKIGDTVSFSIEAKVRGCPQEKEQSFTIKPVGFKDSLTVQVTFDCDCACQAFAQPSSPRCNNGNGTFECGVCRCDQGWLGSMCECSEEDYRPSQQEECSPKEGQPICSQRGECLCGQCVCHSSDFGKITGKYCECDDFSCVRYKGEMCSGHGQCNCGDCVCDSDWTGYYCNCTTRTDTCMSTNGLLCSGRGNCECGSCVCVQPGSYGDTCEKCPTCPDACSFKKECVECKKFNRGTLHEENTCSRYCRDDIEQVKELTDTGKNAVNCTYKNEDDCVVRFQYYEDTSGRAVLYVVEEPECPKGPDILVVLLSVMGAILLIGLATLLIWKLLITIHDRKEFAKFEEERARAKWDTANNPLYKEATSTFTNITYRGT", "test": "Recombinant phage binding in irradiated tumors after blocking antibody, plaque formation", "format": "in vivo", "conditions": "phage quantified by plaque formation", "method": "The anti-[…]2b[…]3 monoclonal antibody was administered by tail vein to determine whether this receptor is required for recombinant phage binding in irradiated tumors. Phage encoding […] (SEQ ID NO: 5) on the capsid protein were injected immediately after blocking antibody or control antibody. Phage were recovered from the tumor and controls organs and quantified by plaque formation. Radiation induced a 4-fold increase in phage binding in tumor. […] Thus, the tumor binding activity of targeting peptide […] (SEQ ID NO: 5) is dependent on its interaction with the α2bβ3 receptor."}
{"sequence": "SLRGDGSSV (phage-displayed; Artificial peptide ligand number 5)", "values": [{"measurement": "radiation-induced increase in phage binding in tumor", "value": 4, "unit": "fold"}]}
